The values below come from patent publication US20240417459A1 (published 2024).

B1: 9H9-7A3 LH (bispecific antibody)
heavy: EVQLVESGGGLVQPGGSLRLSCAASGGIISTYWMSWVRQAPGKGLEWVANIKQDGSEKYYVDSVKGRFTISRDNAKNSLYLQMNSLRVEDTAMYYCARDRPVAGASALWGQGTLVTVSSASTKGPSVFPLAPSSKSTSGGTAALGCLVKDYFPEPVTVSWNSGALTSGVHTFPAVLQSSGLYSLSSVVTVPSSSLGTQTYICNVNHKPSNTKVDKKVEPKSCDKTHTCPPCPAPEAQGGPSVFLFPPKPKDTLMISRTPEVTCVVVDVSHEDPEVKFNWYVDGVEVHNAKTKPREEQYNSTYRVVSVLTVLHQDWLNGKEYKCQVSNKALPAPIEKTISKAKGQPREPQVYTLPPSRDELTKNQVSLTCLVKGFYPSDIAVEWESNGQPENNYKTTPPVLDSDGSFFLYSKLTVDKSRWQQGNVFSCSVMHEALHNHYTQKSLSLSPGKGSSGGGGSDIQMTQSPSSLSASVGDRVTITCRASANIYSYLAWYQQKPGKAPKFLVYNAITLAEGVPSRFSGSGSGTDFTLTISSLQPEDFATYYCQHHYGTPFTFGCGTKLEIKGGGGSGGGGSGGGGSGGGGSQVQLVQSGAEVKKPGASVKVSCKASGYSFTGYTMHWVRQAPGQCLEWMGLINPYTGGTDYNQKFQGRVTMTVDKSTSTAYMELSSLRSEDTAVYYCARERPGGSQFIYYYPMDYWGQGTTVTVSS
light: DIQMTQSPSTLSASVGDRVTITCRASQSISGWLAWYQQKPGKAPKLLIYKASSLESGVPSRFSGSGSGTEFTLTISSLQPDDFATYYCQQYYGSSRTFGQGTNVEIKRTVAAPSVFIFPPSDEQLKSGTASVVCLLNNFYPREAKVQWKVDNALQSGNSQESVTEQDSKDSTYSLSSTLTLSKADYEKHKVYACEVTHQGLSSPVTKSFNRGEC
B2: 9H9-7B1 LH (bispecific antibody)
heavy: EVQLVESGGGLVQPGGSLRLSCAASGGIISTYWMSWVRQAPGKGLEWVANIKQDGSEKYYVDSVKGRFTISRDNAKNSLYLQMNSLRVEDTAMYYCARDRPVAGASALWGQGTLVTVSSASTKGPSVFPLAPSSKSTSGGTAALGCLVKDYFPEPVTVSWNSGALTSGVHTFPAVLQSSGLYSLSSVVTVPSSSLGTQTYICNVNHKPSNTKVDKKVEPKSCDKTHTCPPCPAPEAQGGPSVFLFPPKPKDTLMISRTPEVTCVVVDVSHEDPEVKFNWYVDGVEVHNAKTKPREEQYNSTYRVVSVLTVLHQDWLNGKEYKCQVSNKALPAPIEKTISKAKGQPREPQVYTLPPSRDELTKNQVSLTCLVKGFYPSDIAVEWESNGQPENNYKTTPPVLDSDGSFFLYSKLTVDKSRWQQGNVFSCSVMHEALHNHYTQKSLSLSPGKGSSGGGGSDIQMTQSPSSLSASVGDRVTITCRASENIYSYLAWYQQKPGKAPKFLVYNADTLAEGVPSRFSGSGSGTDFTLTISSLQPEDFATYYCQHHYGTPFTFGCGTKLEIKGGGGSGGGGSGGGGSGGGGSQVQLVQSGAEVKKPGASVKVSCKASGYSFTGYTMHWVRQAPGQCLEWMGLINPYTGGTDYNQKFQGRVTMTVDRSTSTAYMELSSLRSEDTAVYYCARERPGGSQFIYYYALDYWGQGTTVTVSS
light: DIQMTQSPSTLSASVGDRVTITCRASQSISGWLAWYQQKPGKAPKLLIYKASSLESGVPSRFSGSGSGTEFTLTISSLQPDDFATYYCQQYYGSSRTFGQGTNVEIKRTVAAPSVFIFPPSDEQLKSGTASVVCLLNNFYPREAKVQWKVDNALQSGNSQESVTEQDSKDSTYSLSSTLTLSKADYEKHKVYACEVTHQGLSSPVTKSFNRGEC
B3: 9H9-7A3 HL (bispecific antibody)
heavy: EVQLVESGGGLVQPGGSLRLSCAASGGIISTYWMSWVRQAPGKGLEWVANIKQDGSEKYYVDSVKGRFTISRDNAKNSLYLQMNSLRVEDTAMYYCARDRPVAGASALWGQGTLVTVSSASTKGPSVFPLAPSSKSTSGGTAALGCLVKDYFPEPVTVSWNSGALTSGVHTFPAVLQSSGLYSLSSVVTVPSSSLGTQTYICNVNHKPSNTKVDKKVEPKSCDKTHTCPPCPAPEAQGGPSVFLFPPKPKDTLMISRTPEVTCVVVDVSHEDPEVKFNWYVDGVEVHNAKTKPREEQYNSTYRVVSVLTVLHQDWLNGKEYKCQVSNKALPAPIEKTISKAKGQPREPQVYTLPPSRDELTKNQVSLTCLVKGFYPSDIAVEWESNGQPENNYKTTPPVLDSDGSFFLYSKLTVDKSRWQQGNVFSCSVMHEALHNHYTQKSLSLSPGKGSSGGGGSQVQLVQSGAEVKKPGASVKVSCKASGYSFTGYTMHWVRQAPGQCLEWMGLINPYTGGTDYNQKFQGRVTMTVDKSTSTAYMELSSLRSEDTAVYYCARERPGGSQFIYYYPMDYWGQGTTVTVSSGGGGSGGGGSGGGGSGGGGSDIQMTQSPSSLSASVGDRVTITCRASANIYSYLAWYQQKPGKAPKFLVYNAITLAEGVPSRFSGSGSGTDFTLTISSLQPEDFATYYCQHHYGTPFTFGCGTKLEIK
light: DIQMTQSPSTLSASVGDRVTITCRASQSISGWLAWYQQKPGKAPKLLIYKASSLESGVPSRFSGSGSGTEFTLTISSLQPDDFATYYCQQYYGSSRTFGQGTNVEIKRTVAAPSVFIFPPSDEQLKSGTASVVCLLNNFYPREAKVQWKVDNALQSGNSQESVTEQDSKDSTYSLSSTLTLSKADYEKHKVYACEVTHQGLSSPVTKSFNRGEC
B4: 9H9-7B1 HL (bispecific antibody)
heavy: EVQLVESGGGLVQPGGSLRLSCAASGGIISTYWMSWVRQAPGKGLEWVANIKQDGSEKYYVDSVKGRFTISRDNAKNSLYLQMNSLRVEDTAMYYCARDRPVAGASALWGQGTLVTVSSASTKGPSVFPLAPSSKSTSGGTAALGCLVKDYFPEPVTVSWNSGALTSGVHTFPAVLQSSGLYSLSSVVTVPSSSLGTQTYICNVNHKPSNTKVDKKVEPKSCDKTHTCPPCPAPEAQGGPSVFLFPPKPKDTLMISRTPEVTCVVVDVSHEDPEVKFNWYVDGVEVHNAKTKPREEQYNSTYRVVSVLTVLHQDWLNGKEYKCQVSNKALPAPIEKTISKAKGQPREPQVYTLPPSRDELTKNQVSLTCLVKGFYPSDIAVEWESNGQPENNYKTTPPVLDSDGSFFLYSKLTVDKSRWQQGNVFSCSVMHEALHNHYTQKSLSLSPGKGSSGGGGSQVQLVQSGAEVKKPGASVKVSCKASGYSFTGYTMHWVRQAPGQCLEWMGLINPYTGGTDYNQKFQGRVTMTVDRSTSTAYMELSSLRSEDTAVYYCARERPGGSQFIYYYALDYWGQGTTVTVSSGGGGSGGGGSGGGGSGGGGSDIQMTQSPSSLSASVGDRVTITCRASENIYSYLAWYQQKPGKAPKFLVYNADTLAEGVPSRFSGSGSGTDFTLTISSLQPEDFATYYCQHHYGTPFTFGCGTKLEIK
light: DIQMTQSPSTLSASVGDRVTITCRASQSISGWLAWYQQKPGKAPKLLIYKASSLESGVPSRFSGSGSGTEFTLTISSLQPDDFATYYCQQYYGSSRTFGQGTNVEIKRTVAAPSVFIFPPSDEQLKSGTASVVCLLNNFYPREAKVQWKVDNALQSGNSQESVTEQDSKDSTYSLSSTLTLSKADYEKHKVYACEVTHQGLSSPVTKSFNRGEC

The test deals with human ILT4-HIS. Briefly: BLI (Octet).
The molecule B1 returned a Kd of 0.282 nM. This counts as sub-nanomolar.
With B2, the Kd worked out at 0.056 nM. Against the preceding molecule, the Kd is about 5-fold lower.
As for B3, the figure is 0.308 nM; as for B4, 0.139 nM.
